According to paper PMC11722267:

Biological target: 5-FAM-labelled VISTA WT peptide (fluorescence polarization probe) (human)
Experiment: fluorescence polarisation

Chain of 5-FAM-labelled VISTA WT peptide (fluorescence polarization probe) (human) (Q9H7M9 232-258): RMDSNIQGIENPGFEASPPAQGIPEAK

Kd: 5.5 µM
Substance: recombinant NUMB PTB domain (domain or fragment)
